The text below walks through data of patent publication US6903183B1, “Compositions and methods for regulation of steroidogenesis” (Texas Tech University Health Services Center, priority 1996, dated 2005).

In experiment [1] the target is T1, StAR (Mus musculus, UniProt P51557).
T1 construct: made in house; host or cells: three sources: dbcAMP-stimulated MA-10 cells (endogenous); COS 1 cells transfected with StAR cDNA; E. coli with pKK233-2/StAR
T1 sequence (P51557 63-284): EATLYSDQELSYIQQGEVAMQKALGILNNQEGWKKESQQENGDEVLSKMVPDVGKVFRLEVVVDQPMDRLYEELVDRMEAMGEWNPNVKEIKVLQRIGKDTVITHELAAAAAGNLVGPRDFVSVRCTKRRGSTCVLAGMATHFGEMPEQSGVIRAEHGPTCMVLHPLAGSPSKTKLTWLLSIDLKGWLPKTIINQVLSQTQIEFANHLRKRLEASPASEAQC
In words: Fluorescent sterol binding assay.

The target of experiment [2] is T1, StAR. Description: Cholesterol binding to StAR (filtration radioassays, native PAGE). The text has this: For these studies StAR proteins were obtained from three sources; (1) MA-10 cells stimulated with dbAMP; (2) monkey kidney cells (COS 1) transfected with StAR cDNA; and (3) expression of a recombinant pKK233-2/StAR plasmid in E. coli. Filtration radioassays and Steady-State (native) polyacrylamide gel electrophoresis were used to detect cholesterol binding to StAR. […] Thus, this study has provided evidence that cholesterol can bind to the StAR protein with high affinity.

The test system of experiment [3] is COS 1 cells. As to conditions: expressed in COS1 cells (Lin et al., 1995); cited from earlier work.
For experiment [4], the system named is mitochondria isolated from MA-10 mouse Leydig tumor cells. In words: In vitro reconstituted system: pregnenolone synthesis by isolated mitochondria. It counts as biochemical. As to conditions: protein added to isolated mitochondria. The text has this: Rat heart mitochondria were used for the import assay with bovine StAR, indicating import of StAR is not dependent upon factors specific to mitochondria isolated from steroidogenic tissues. The ability of StAR to increase steroid production has also been confirmed in an in vitro reconstituted system.

A further experiment relates to MA-10 cells. Description: Progesterone production in MA-10 cells transfected with the 30 kDa cDNA (radioimmunoassay). It counts as cell-based, mouse. The text has this:
Expression of the 30-kD Protein in MA-10 Cells and COS I Cells. The full length SalI-NotI 1456 base pair 30-kDa cDNA was subcloned into the eukaryotic expression vector, pCMV (Anderson, et al., 1989). MA-10 cells were transfected with DNA by a lipsome-mediated uptake using the LipofectAMINE reagent (Life Technologies, Inc. Gathersburg, Md.) (Hawley-Nelson, et al., 1993). Plasmid DNA used in transfection experiments were purified by CsCl density gradient followed by polyethylene glycol precipitation. The DNA was mixed with {fraction (1/10 )} the final volume of Waymouth's media minus serum and minus antibiotics (WAY^−) and added to an equal volume of WAY^− media containing the LipofectAMINE reagent. The DNA/lipid solution was gently mixed and incubated for 30 min at room temperature, then WAY^− media was added to achieve the final concentration of the DNA and LipofectAMINE reagent of 5 μg/ml and 20 μg/ml respectively. The cells were washed once with WAY^− media, incubated with transfection mix for 6 h, washed once with PBS, then incubated with Waymouth's plus 15% horse serum. The same procedure was used for transfection of COS 1 cells except Dulbecco's modified Eagle's media minus serum and antibiotics was used for the transfection media. For isolation of mitochondria for immunoblot analysis, cells were grown on 100-mm dishes. For progesterone production assays, MA-10 cells were plated into 96 well plates at 75,000 cells/well the day before the experiment. Typically, 8 wells each were transfected with either pCMV or pCMV+30-kDa cDNA for one experiment set.
Radioimmunoassay. 48 hours post-transfection, the growth medium was replaced with Waymouth's minus horse serum. After 6 h at 37° C. 5% CO2, progesterone was measured directly in the media by radioimmunoassay as previously described (Resko, et al., 1974). The progesterone antibody was obtained from Holly Hill Biologicals (Hillsboro, Oreg.).
MA-10 cells were transfected with the 30 kDa cDNA and progesterone production was measured as follows. The full-length cDNA was subcloned into the pCMW eukaryotic expression vector and transfected into MA-10 cells using LipofectAMINE (Life Technologies, Inc.). Cells (75,000 per well) were plated in a 96 well plate the day before transfection. The cells were incubated with the DNA/lipid transfection mixture for 6 hours, washed one time with PBS, and the incubated in Waymouths+15% horse serum. […] After 6 h, the medium was removed and progesterone was measured by radioimmunoassay. The cells were lysed directly in the wells with 0.1% SDS and protein was determined by the method of Bradford (1976). […] The transfected cells were not treated with hormone and progesterone was measured directly in the media after a 6 h incubation.

In experiment [5] the test system is COS 1 cells. Description: Steroid production in COS 1 cells expressing StAR. The settings on record: transient transfection of COS 1 cells, absence of hormone stimulation. It counts as cell-based, monkey. The text has this: Testicular tissue of two patients and genome DNA of a third patient with LCAH have mutations in the gene for StAR (Lin et al., Science, 267:1828-1831, 1995) (incorporated herein by reference). […] These truncations were confirmed by Western analysis following expression of the mutated cDNAs in COS cells. Virtually none of the precursor form of StAR expressed from the cDNA of these patients was converted to the mature mitochondrial form.
Also, increases in StAR mRNA and protein closely paralleled steroid production indicating a temporal relationship in these parameters.

Take `C[C@H](CNc1ccc([N+](=O)[O-])c2nonc12)[C@H]1CC[C@H]2[C@@H]3CC=C4C[C@@H](O)CC[C@]4(C)[C@H]3CC[C@]12C` [NBD-cholesterol]: the “affinity of binding to StAR” value at StAR [1] is given as “nanomolar range”.

Turning to `CC(C)CCC[C@@H](C)[C@H]1CC[C@H]2[C@@H]3CC=C4C[C@@H](O)CC[C@]4(C)[C@H]3CC[C@]12C` [cholesterol], the “specific binding to StAR” value on StAR [2] is 20-40 % of the total binding.

B1: StAR: LH-inducible mitochondrial 37 kDa precursor / 30 kDa mature protein, SEQ ID NO:2 (mouse) or 18 (human) (protein)
chain: MGQVRRRSSLLGSQLEATLYSDQELSYIQQGEVAMQKALGILNNQEGWKKESQQENGDEVLSKMVPDVGKVFRLEVVVDQPMDRLYEELVDRMEAMGEWNPNVKEIKVLQRIGKDTVITHELAAAAAGNLVGPRDFVSVRCTKRRGSTCVLAGMATHFGEMPEQSGVIRAEHGPTCMVLHPLAGSPSKTKLTWLLSIDLKGWLPKTIINQVLSQTQIEFANHLRKRLEASPASEAQC
As to B1, in the experiment on COS 1 cells [3], the “increase in steroid production” value is 8 fold. In experiment [4], the pregnenolone synthesis result was “time- and dose-dependent increase”. In addition, the “average rate of progesterone produced” value with MA-10 cells (MA-10 cells expressing the 30 kDa protein) is given as 166 pg progesterone produced per mg protein per hour. In addition, the “increase in progesterone production above cells transfected with vector alone” value in the experiment on MA-10 cells (MA-10 cells, absence of hormone stimulation) is 1.5-3.5. This molecule also came in with an increase in steroidogenesis with MA-10 cells (expression of 30 kDa protein in MA-10 cells versus pCMV vector alone) of 1.5 to 3.7 fold. The “constitutive steroid production versus basal parental MA-10 cells” value in the experiment on MA-10 cells (stable transfected MA-10 cell lines constitutively synthesizing the 30 kDa protein) was “about 9 x”. Also, the steroid production result in the experiment with COS 1 cells [5] is given as “several fold increase”.
